± gives the standard deviation of the averaged measurements.
System: Saccharomyces cerevisiae
Assay: protein stability index of tFT-peptide fusion (C-terminal peptide) (PSI (0-1 scale)); higher = more stable (slower turnover)
Conditions: genetic background: wild type; temperature: 30 C
Method: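 Multiplexed protein stability (MPS) profiling in S. cerevisiae. Random 12-aa peptides (tFT-X12 library) are fused to the C-terminus of a sfGFP-mCherry tandem fluorescent timer, after mCherry and a GGGS linker. Cells are FACS-sorted into 8 mCherry/sfGFP bins and deep-sequenced. The protein stability index (PSI) is the read-weighted bin average, scaled from 0 (unstable) to 1 (stable). Only peptides with >10 reads are reported; cells were grown at 30 °C in SC-His with glucose.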
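Note: PSI is a weighted mean of sequencing reads over stability bins, variants kept only with over 10 reads, mCherry proximal and sfGFP distal, peptide attached via GGGS linker.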

Point of comparison: GVARGFGVVVPA, protein stability index 0.6427 ± 0.0044. Against it:
- TSVFPLFSPLRS — higher, 0.721 ± 0.029
- GGLWGSGGASGG — higher, 0.742 ± 0.073
- SRWWSRPRYRDG — higher, 0.752 ± 0.017
- SRYGKVIRKKHE — higher, 0.756 ± 0.021
- FPPPPPSFSQPL — higher, 0.741 ± 0.034
- PPPPPPPPCGTP — within error, 0.633 ± 0.014
- WWWGGGRGGMGG — higher, 0.734 ± 0.019
- KVLRKQRLKGRE — lower, 0.5238 ± 0.0015
- DGLWIYNINDGH — higher, 0.7314 ± 0.0019
- VVAVRLPNVRHY — within error, 0.655 ± 0.018
- YPARSPPSPLSL — higher, 0.686 ± 0.025
- PPRPPSSPLPPR — higher, 0.733 ± 0.055
- PLSFHPHLTSSP — higher, 0.671 ± 0.013
- SCPPRLVFPRPS — within error, 0.66 ± 0.034
- PLRLPPAPPPPP — lower, 0.617 ± 0.015
- SVPPPLSPPPPP — higher, 0.668 ± 0.018
- PPSPPPPPPFVP — higher, 0.717 ± 0.033
- GRYSGSFWSFWS — higher, 0.719 ± 0.023
- QIKARVRRDLTL — within error, 0.692 ± 0.096
- FTFARPVCLFFG — lower, 0.587 ± 0.003
- LIALSLPSSFVF — lower, 0.594 ± 0.025
- GRCSRGVEGVSG — within error, 0.675 ± 0.034
- RTRTGRPKSPLH — within error, 0.6354 ± 0.0052
- GNHNGKIILDNR — higher, 0.679 ± 0.023
- APPPLLPLRPFR — within error, 0.606 ± 0.1
- VFMVLLLGFRRF — lower, 0.549 ± 0.011
- PPPSPHRLDHLT — higher, 0.704 ± 0.016
- QLSSARTILRRP — lower, 0.597 ± 0.0085
- DRRRGVGESSFG — higher, 0.703 ± 0.025
- GVGAWGGMCGVV — higher, 0.724 ± 0.0082
- INRLKPGRGQKT — within error, 0.658 ± 0.03
- KRKRKKKSEKEE — within error, 0.652 ± 0.025
- LSPLIHSPRPFA — higher, 0.752 ± 0.061
- AQPPPPPAPTPS — within error, 0.674 ± 0.093
- RIADSLTPAHPA — higher, 0.699 ± 0.023
- SLRSIAPLGSRC — within error, 0.832 ± 0.19
- RVWEGGRGGDGC — higher, 0.676 ± 0.024
- VPYFRSMSSLSI — within error, 0.6347 ± 0.0039
- CRWLLWVDGWRV — lower, 0.5838 ± 0.0043
- LDSRSELGRGLK — higher, 0.714 ± 0.018
- GLYSGGLGAGVG — within error, 0.658 ± 0.092
- PGHRVLKILHLR — lower, 0.551 ± 0.055
- FQGRLILCIETR — lower, 0.5323 ± 0.00074
- RKINKQKRTKEE — within error, 0.6449 ± 0.0023
- SLGGGGGLAWWL — within error, 0.795 ± 0.26
- SSPPTHAPPLPP — higher, 0.688 ± 0.017
- PPPLSSPGPPPL — higher, 0.704 ± 0.014
- GKSYWYDSGNMM — higher, 0.752 ± 0.078
- AELSPGLSVLLL — higher, 0.705 ± 0.013
- RRCTLVERAWRW — within error, 0.628 ± 0.039
- LPPLPLRSLSSP — higher, 0.746 ± 0.025
- RYGYCVPNVMRS — higher, 0.778 ± 0.11
- PFPLPPPPFHPP — higher, 0.691 ± 0.014
- LAGLRLPNDLGP — higher, 0.712 ± 0.059
- RATSCAAPLLAR — lower, 0.6009 ± 0.0047
- KRGKKNEESRRD — within error, 0.68 ± 0.085
- SHPAPGSPTSPS — higher, 0.67064 ± 0.00027
- ICVAVESRVSRG — within error, 0.628 ± 0.046
- YKRKTKMQRVSN — lower, 0.627 ± 0.01
- PSDLPPPTPLLA — within error, 0.63 ± 0.022
- VLACVAQAACCR — lower, 0.556 ± 0.054
- GGDGAVSRRWGR — higher, 0.685 ± 0.015
- SPLSPPPPRLSA — higher, 0.723 ± 0.061
- KQSNGEFNIATP — within error, 0.648 ± 0.046
- PERPPVARATRP — higher, 0.718 ± 0.049
- RDPSVVGLGRPP — lower, 0.604 ± 0.0076
- IGLTVICHFMNV — lower, 0.576 ± 0.05
- PSPSLYPPASPP — within error, 0.654 ± 0.046
- DFVLKQIARINL — within error, 0.648 ± 0.021
- GGGVYPAGVVSG — higher, 0.658 ± 0.01
- PKKREKKKKKEK — within error, 0.66 ± 0.073
- SAPPPSPAPSPY — higher, 0.677 ± 0.023
- GGFALIWQRVCP — higher, 0.705 ± 0.011
- PHPTPSLPHSSP — higher, 0.827 ± 0.043
- PPPTLSPPPPPL — higher, 0.75 ± 0.034
- LSNGVCSVSFLL — higher, 0.672 ± 0.024
- RNNIKIKNTQQN — higher, 0.759 ± 0.045
- LPPSPLLLTSPP — higher, 0.687 ± 0.016
- PNASPNPHRSNK — within error, 0.708 ± 0.062
- EVDGISTRAAVC — within error, 0.63 ± 0.083
- VLMVIPRAQVLL — within error, 0.697 ± 0.085
- NKQNKKKKTNKK — higher, 0.6792 ± 0.0036
- FLSSWFCYSSDL — higher, 0.735 ± 0.07
- KRQWAGRDGEGR — higher, 0.662 ± 0.0068
- LFHAPLFPPSSF — within error, 0.657 ± 0.04
- SPTRSPPRPLPP — within error, 0.649 ± 0.031
- LPPPLPPPGPPF — higher, 0.715 ± 0.013
- KGVGGSTSRGGE — within error, 0.666 ± 0.047
- FLPFFFCLPSSL — within error, 0.628 ± 0.014
- PPPTPTFPVPPH — lower, 0.6021 ± 0.00058
- WGGGGPGWGSRG — within error, 0.621 ± 0.027
- LSRSSQPLPPPH — higher, 0.7306 ± 0.0021
- DVYDLGLPINMS — higher, 0.698 ± 0.045
- FYFRFPGFLAGF — lower, 0.5687 ± 0.0052
- FFQSSLLFCPWR — higher, 0.712 ± 0.011
- LRQRAHRPYFRS — higher, 0.706 ± 0.019
- SPPRPPAPPLLP — higher, 0.676 ± 0.011

— the supplement of paper PMC10724198
